Test results: patent publication US20260242735A1 (UNIVERSIT T BASEL, published 2026)

Tests used:
[1] = target: human CD33 R202A (human, UniProt P20138 18-364); assay: alanine scan, flow cytometry, HEK293-T;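 note: antibody binding to each alanine-substituted CD33 mutant expressed transiently in HEK293-T, read as fluorescence minus background, mean of duplicates, relative to wild-type CD33 set as 100%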
[2] = target: human CD33 T200A (human, UniProt P20138 18-364); assay: alanine scan, flow cytometry, HEK293-T;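 note: antibody binding to each alanine-substituted CD33 mutant expressed transiently in HEK293-T, read as fluorescence minus background, mean of duplicates, relative to wild-type CD33 set as 100%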
human CD33 T200A, sequence (P20138 18-364 T200A limits assumed): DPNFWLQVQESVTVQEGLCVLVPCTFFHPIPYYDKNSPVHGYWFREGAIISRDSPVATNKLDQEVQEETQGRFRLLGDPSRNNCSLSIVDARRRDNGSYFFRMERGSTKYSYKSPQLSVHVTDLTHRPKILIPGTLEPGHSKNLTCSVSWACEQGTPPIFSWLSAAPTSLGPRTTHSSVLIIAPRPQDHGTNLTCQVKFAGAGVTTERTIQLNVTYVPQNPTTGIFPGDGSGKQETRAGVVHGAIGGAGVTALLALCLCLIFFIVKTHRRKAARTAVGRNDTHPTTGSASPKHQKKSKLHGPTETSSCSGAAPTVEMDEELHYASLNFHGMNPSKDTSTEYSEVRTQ

[3] = target: human CD33 G241A (human, UniProt P20138 18-364); assay: alanine scan, flow cytometry, HEK293-T;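 note: antibody binding to each alanine-substituted CD33 mutant expressed transiently in HEK293-T, read as fluorescence minus background, mean of duplicates, relative to wild-type CD33 set as 100%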
human CD33 G241A, sequence (P20138 18-364 G241A limits assumed): as the sequence (P20138 18-364 T200A limits assumed) above, with A183T, G224A counted along it

[4] = target: human CD33 G249A (human, UniProt P20138 18-364); assay: alanine scan, flow cytometry, HEK293-T;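 note: antibody binding to each alanine-substituted CD33 mutant expressed transiently in HEK293-T, read as fluorescence minus background, mean of duplicates, relative to wild-type CD33 set as 100%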
human CD33 G249A, sequence (P20138 18-364 G249A limits assumed): as the sequence (P20138 18-364 T200A limits assumed) above, with A183T, G232A counted along it

[5] = target: human CD33 C274A (human, UniProt P20138 18-364); assay: alanine scan, flow cytometry, HEK293-T
human CD33 C274A, sequence (P20138 18-364 C274A limits assumed): as the sequence (P20138 18-364 T200A limits assumed) above, with A183T, C257A counted along it

[6] = target: human CD33 F279A (human, UniProt P20138 18-364); assay: alanine scan, flow cytometry, HEK293-T
human CD33 F279A, sequence (P20138 18-364 F279A limits assumed): as the sequence (P20138 18-364 T200A limits assumed) above, with A183T, F262A counted along it

[7] = target: human CD33 H285A (human, UniProt P20138 18-364); assay: alanine scan, flow cytometry, HEK293-T
human CD33 H285A, sequence (P20138 18-364 H285A limits assumed): as the sequence (P20138 18-364 T200A limits assumed) above, with A183T, H268A counted along it

[8] = target: human CD33 R286A (human, UniProt P20138 18-364); assay: alanine scan, flow cytometry, HEK293-T
human CD33 R286A, sequence (P20138 18-364 R286A limits assumed): as the sequence (P20138 18-364 T200A limits assumed) above, with A183T, R269A counted along it

[9] = target: human CD33 V258A (human, UniProt P20138 18-364); assay: alanine scan, flow cytometry, HEK293-T
human CD33 V258A, sequence (P20138 18-364 V258A limits assumed): as the sequence (P20138 18-364 T200A limits assumed) above, with A183T, V241A counted along it

[10] = target: human CD33 extracellular region F21N (human, UniProt P20138 22-259); assay: BLI Octet, IgG captured on AHC, CD33 analyte;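 note: CD33 variants and wild type run as analyte at 5, 50 and 500 nM, 700 s association then 1200 s dissociation, buffer-only reference subtracted, global 1:1 fit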
Description: (§1) Human CD33 wt and variants, were used as analyte at 3 different concentrations (500, 50 and 5 nM). Association of the analyte to the antibodies was monitored for 700 s and dissociation of the analyte from the antibodies was monitored for 1200 s. Reference subtraction was performed against buffer only wells. AHC tips were regenerated using 10 mM Glycine-HCl pH 1.7. Data were analyzed with Octet Data Analysis software HT 12.0. Data were fitted to a 1:1 binding model. Kinetic rates ka and kd and response signal were globally fitted.

[11] = target: human CD33 extracellular region W22R (human, UniProt P20138 18-259); assay: BLI Octet, IgG captured on AHC, CD33 analyte;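 note: CD33 variants and wild type run as analyte at 5, 50 and 500 nM, 700 s association then 1200 s dissociation, buffer-only reference subtracted, global 1:1 fit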
human CD33 extracellular region W22R, sequence (P20138 other isoform, or with tags, fused parts or gaps W22R W22R): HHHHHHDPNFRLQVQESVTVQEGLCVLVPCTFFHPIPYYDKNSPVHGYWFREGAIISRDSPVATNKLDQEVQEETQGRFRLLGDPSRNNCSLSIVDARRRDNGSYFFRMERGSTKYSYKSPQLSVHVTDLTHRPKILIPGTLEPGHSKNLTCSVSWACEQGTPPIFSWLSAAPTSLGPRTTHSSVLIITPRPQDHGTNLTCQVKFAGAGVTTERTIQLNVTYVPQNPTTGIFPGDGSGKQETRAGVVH
Description: as §1

[12] = target: human CD33 extracellular region Y50S (human, UniProt P20138 18-259); assay: BLI Octet, IgG captured on AHC, CD33 analyte;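 note: CD33 variants and wild type run as analyte at 5, 50 and 500 nM, 700 s association then 1200 s dissociation, buffer-only reference subtracted, global 1:1 fit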
human CD33 extracellular region Y50S, sequence (P20138 other isoform, or with tags, fused parts or gaps Y50S Y50S): as the sequence (P20138 other isoform, or with tags, fused parts or gaps W22R W22R) above, with R11W, Y39S counted along it
Description: as §1

[13] = target: human CD33 extracellular region Y50K (human, UniProt P20138 18-259); assay: BLI Octet, IgG captured on AHC, CD33 analyte;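 note: CD33 variants and wild type run as analyte at 5, 50 and 500 nM, 700 s association then 1200 s dissociation, buffer-only reference subtracted, global 1:1 fit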
human CD33 extracellular region Y50K, sequence (P20138 other isoform, or with tags, fused parts or gaps Y50K Y50K): as the sequence (P20138 other isoform, or with tags, fused parts or gaps W22R W22R) above, with R11W, Y39K counted along it
Description: as §1

[14] = target: human CD33 extracellular region N20D (human, UniProt P20138 21-259); assay: BLI Octet, IgG captured on AHC, CD33 analyte
Description: as §1

[15] = target: human CD33 extracellular region Y50D (human, UniProt P20138 18-259); assay: BLI Octet, IgG captured on AHC, CD33 analyte
Description: as §1

[16] = target: human CD33 extracellular region F44S (human, UniProt P20138 18-259); assay: BLI Octet, IgG captured on AHC, CD33 analyte
Description: as §1

[17] = target: human CD33 extracellular region Y50R (human, UniProt P20138 18-259); assay: BLI Octet, IgG captured on AHC, CD33 analyte
Description: as §1

[18] = target: human CD33 extracellular region N100Q (human, UniProt P20138 18-259); assay: BLI Octet, IgG captured on AHC, CD33 analyte
Description: as §1

[19] = target: human CD33 extracellular region Y50E (human, UniProt P20138 18-259); assay: BLI Octet, IgG captured on AHC, CD33 analyte
Description: as §1

[20] = target: human CD33 extracellular region F21V (human, UniProt P20138 22-259); assay: BLI Octet, IgG captured on AHC, CD33 analyte
Description: as §1

[21] = target: human CD33 extracellular region H45Y (human, UniProt P20138 18-259); assay: BLI Octet, IgG captured on AHC, CD33 analyte
human CD33 extracellular region H45Y, sequence (P20138 other isoform, or with tags, fused parts or gaps H45Y H45Y): as the sequence (P20138 other isoform, or with tags, fused parts or gaps W22R W22R) above, with R11W, H34Y counted along it
Description: as §1

[22] = target: human CD33 extracellular region N20K (human, UniProt P20138 21-259); assay: BLI Octet, IgG captured on AHC, CD33 analyte
human CD33 extracellular region N20K, sequence (P20138 other isoform, or with tags, fused parts or gaps N20K N20K): as the sequence (P20138 other isoform, or with tags, fused parts or gaps W22R W22R) above, with N9K, R11W counted along it
Description: as §1

[23] = target: human CD33 extracellular region W22S (human, UniProt P20138 18-259); assay: BLI Octet, IgG captured on AHC, CD33 analyte
Description: as §1

[24] = target: human CD33 extracellular region P48F (human, UniProt P20138 18-259); assay: BLI Octet, IgG captured on AHC, CD33 analyte
human CD33 extracellular region P48F, sequence (P20138 other isoform, or with tags, fused parts or gaps P48F P48F): as the sequence (P20138 other isoform, or with tags, fused parts or gaps W22R W22R) above, with R11W, P37F counted along it
Description: as §1

[25] = target: human CD33 extracellular region N20G (human, UniProt P20138 21-259); assay: BLI Octet, IgG captured on AHC, CD33 analyte
Description: as §1

[26] = target: human CD33 extracellular region W22D (human, UniProt P20138 18-259); assay: BLI Octet, IgG captured on AHC, CD33 analyte
Description: as §1

[27] = target: human CD33 extracellular region N20H (human, UniProt P20138 21-259); assay: BLI Octet, IgG captured on AHC, CD33 analyte
Description: as §1

[28] = target: human CD33 extracellular region F44P (human, UniProt P20138 18-259); assay: BLI Octet, IgG captured on AHC, CD33 analyte
Description: as §1

[29] = target: human CD33 extracellular region N20E (human, UniProt P20138 21-259); assay: BLI Octet, IgG captured on AHC, CD33 analyte
Description: as §1

human CD33 R202A, sequence (P20138 18-364 R202A limits assumed): as the sequence (P20138 18-364 T200A limits assumed) above, with A183T, R185A counted along it

Binder | Mean % WT Binding [1] | Mean % WT Binding [2] | Mean % WT Binding [3] | Mean % WT Binding [4] | Mean % WT Binding [5] | Mean % WT Binding [6] | Mean % WT Binding [7] | Mean % WT Binding [8] | Mean % WT Binding [9] | further results
Refmab #2 (antibody, V domains shown, In the alanine scan antibodies were used as IgG or Fab) VH: QVQLVQSGAEVKKPGSSVKVSCKASGGTFSDYAISWVRQAPGQGLEWMGRIIPILGVADYAQKFQGRVTITADKSTRTAYMELSSLRSEDTAVYYCARNWADAFDIWGQGTMVTVSS VL: DIQLTQSPSSLSASVGDRVTITCRASQGISSVLAWYQQKPGKAPKLLIYDASSLESGVPSRFSGSGSGTDFTLTISSLQPEDFATYYCQQFDSSITFGQGTKLEIK | 112% | 111% | 111% |  |  |  |  |  |  | 
Refmab #2 (antibody, V domains shown, The alanine scan used IgG or Fab) VH: QVQLVQSGAEVKKPGSSVKVSCKASGGTFSDYAISWVRQAPGQGLEWMGRIIPILGVADYAQKFQGRVTITADKSTRTAYMELSSLRSEDTAVYYCARNWADAFDIWGQGTMVTVSS VL: DIQLTQSPSSLSASVGDRVTITCRASQGISSVLAWYQQKPGKAPKLLIYDASSLESGVPSRFSGSGSGTDFTLTISSLQPEDFATYYCQQFDSSITFGQGTKLEIK |  |  |  | 127 % WT binding | 117 % WT binding | 116 % WT binding | 109 % WT binding | 117 % WT binding | 111 % WT binding | 
Refmab #1 (antibody, V domains shown, In the alanine scan antibodies were used as IgG or Fab; also called hP67.6) VH: EVQLVQSGAEVKKPGSSVKVSCKASGYTITDSNIHWVRQAPGQSLEWIGYIYPYNGGTDYNQKFKNRATLTVDNPTNTAYMELSSLRSEDTAFYYCVNGNPWLAYWGQGTLVTVSS VL: DIQLTQSPSTLSASVGDRVTITCRASESLDNYGIRFLTWFQQKPGKAPKLLMYAASNQGSGVPSRFSGSGSGTEFTLTISSLQPDDFATYYCQQTKEVPWSFGQGTKVEVK | 86.7% | 85.2% | 102% |  |  |  |  |  |  | 
Refmab #1 (antibody, V domains shown, The alanine scan used IgG or Fab; also called hP67.6) VH: EVQLVQSGAEVKKPGSSVKVSCKASGYTITDSNIHWVRQAPGQSLEWIGYIYPYNGGTDYNQKFKNRATLTVDNPTNTAYMELSSLRSEDTAFYYCVNGNPWLAYWGQGTLVTVSS VL: DIQLTQSPSTLSASVGDRVTITCRASESLDNYGIRFLTWFQQKPGKAPKLLMYAASNQGSGVPSRFSGSGSGTEFTLTISSLQPDDFATYYCQQTKEVPWSFGQGTKVEVK |  |  |  | 89.2 % WT binding | 88.4 % WT binding | 104 % WT binding | 100 % WT binding | 96.3 % WT binding | 99.8 % WT binding | 
Refmab #4 (antibody, V domains shown, In the alanine scan antibodies were used as IgG or Fab) VH: QVQLVQSGAEVKKPGESVKVSCKASGYTFTNYGMNWVKQAPGQGLEWMGWINTYTGEPTYADKFQGRVTMTTDTSTSTAYMEIRNLGGDDTAVYYCARWSWSDGYYVYFDYWGQGTSVTVSS VL: DIVMTQSPDSLTVSLGERTTINCKSSQSVLDSSTNKNSLAWYQQKPGQPPKLLLSWASTRESGIPDRFSGSGSGTDFTLTIDSPQPEDSATYYCQQSAHFPITFGQGTRLEIK | 88.7% | 88.8% | 109% |  |  |  |  |  |  | 
Refmab #4 (antibody, human IgG1, V domains shown) VH: QVQLVQSGAEVKKPGESVKVSCKASGYTFTNYGMNWVKQAPGQGLEWMGWINTYTGEPTYADKFQGRVTMTTDTSTSTAYMEIRNLGGDDTAVYYCARWSWSDGYYVYFDYWGQGTSVTVSS VL: DIVMTQSPDSLTVSLGERTTINCKSSQSVLDSSTNKNSLAWYQQKPGQPPKLLLSWASTRESGIPDRFSGSGSGTDFTLTIDSPQPEDSATYYCQQSAHFPITFGQGTRLEIK |  |  |  |  |  |  |  |  |  | % WT binding [10]: 83%; % WT binding [11]: 82.8%; % WT binding [12]: 22.6%; % WT binding [13]: 0%; % WT binding [14]: 91.3%; % WT binding [15]: 0%; % WT binding [16]: 84.6%; % WT binding [17]: 0%; % WT binding [18]: 114%; % WT binding [19]: 16%; % WT binding [20]: 101%; % WT binding [21]: 69.3%; % WT binding [22]: 102%; % WT binding [23]: 93%; % WT binding [24]: 9.11%; % WT binding [25]: 115%; % WT binding [26]: 104%; % WT binding [27]: 104%; % WT binding [28]: 87.4%; % WT binding [29]: 100%
Refmab #4 (antibody, V domains shown, The alanine scan used IgG or Fab) VH: QVQLVQSGAEVKKPGESVKVSCKASGYTFTNYGMNWVKQAPGQGLEWMGWINTYTGEPTYADKFQGRVTMTTDTSTSTAYMEIRNLGGDDTAVYYCARWSWSDGYYVYFDYWGQGTSVTVSS VL: DIVMTQSPDSLTVSLGERTTINCKSSQSVLDSSTNKNSLAWYQQKPGQPPKLLLSWASTRESGIPDRFSGSGSGTDFTLTIDSPQPEDSATYYCQQSAHFPITFGQGTRLEIK |  |  |  | 111 % WT binding | 103 % WT binding | 103 % WT binding | 95.2 % WT binding | 101 % WT binding | 95.8 % WT binding | 
Refmab #3 (antibody, V domains shown, In the alanine scan antibodies were used as IgG or Fab) VH: QVQLVQSGAEVKKPGSSVKVSCKASGYTFTDYNMHWVRQAPGQGLEWIGYIYPYNGGTGYNQKFKSKATITADESTNTAYMELSSLRSEDTAVYYCARGRPAMDYWGQGTLVTVSS VL: DIQMTQSPSSLSASVGDRVTITCRASESVDNYGISFMNWFQQKPGKAPKLLIYAASNQGSGVPSRFSGSGSGTDFTLTISSLQPDDFATYYCQQSKEVPWTFGQGTKVEIK | 128% | 82.4% | 128% |  |  |  |  |  |  | 
Refmab #3 (antibody, V domains shown, The alanine scan used IgG or Fab) VH: QVQLVQSGAEVKKPGSSVKVSCKASGYTFTDYNMHWVRQAPGQGLEWIGYIYPYNGGTGYNQKFKSKATITADESTNTAYMELSSLRSEDTAVYYCARGRPAMDYWGQGTLVTVSS VL: DIQMTQSPSSLSASVGDRVTITCRASESVDNYGISFMNWFQQKPGKAPKLLIYAASNQGSGVPSRFSGSGSGTDFTLTISSLQPDDFATYYCQQSKEVPWTFGQGTKVEIK |  |  |  | 132 % WT binding | 111 % WT binding | 138 % WT binding | 94.3 % WT binding | 92.4 % WT binding | 106 % WT binding | 
